Holding throughout (assay): disulfide (cystamine) crosslinking, SDS-PAGE; 2.5 mM MnCl2; MST: 25 mM Hepes pH 7.5, 150 mM NaCl, 1 mM DTT, with or without 2 mM GTP and 2 mM MnCl2, 20 nM Cy5-tRNA, temperature not stated; crosslinking: 50 mM Tris pH 7.5, 25 mM NaCl, 25 mM KCl, 30% glycerol, 2.5 mM MnCl2, 0-1 mM DTT, 37 C 2 h then 24 C 14 h
Settings in all cases: protein: recombinant; tags: His6-SUMO removed; single strand

Data set [1] deals with T1, Tb-RtcB R237C (Thermococcus barophilus, UniProt F0LKB8 1-479, R237C).
T1 sequence: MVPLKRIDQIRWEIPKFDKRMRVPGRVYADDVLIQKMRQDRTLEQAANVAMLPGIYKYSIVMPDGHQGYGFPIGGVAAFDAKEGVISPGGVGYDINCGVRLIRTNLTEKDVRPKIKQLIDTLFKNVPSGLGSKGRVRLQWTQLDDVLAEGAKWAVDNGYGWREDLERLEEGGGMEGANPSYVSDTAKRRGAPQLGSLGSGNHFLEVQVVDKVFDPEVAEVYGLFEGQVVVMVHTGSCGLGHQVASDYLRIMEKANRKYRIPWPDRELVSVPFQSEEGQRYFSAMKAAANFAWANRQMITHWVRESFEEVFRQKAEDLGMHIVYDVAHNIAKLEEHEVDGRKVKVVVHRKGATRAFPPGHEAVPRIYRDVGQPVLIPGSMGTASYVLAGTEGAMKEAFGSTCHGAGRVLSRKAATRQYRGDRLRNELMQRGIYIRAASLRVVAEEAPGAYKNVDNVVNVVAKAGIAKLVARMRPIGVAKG

In data set [2] the target is T2, Tb-RtcB L130C (Thermococcus barophilus, UniProt F0LKB8 1-479, L130C).
T2 sequence: T1 sequence with L130C, C237R

Data set [3] deals with T3, Tb-RtcB S199C (Thermococcus barophilus, UniProt F0LKB8 1-479, S199C).
T3 sequence: T1 sequence with S199C, C237R

Numbering of substitutions follows the chain as printed.

B1: RNA-2 (ssRNA)
RNA: AAACACCGGUGGAGG
modifications: cystamine on phosphate between nt 1 and 2; 2'-F at nt 1; 3'-phosphate
With B1, the binding result in data set [1] is “binds”.

B2: RNA-1 (ssRNA)
RNA: AAACACCGGUGGAGG
modifications: cystamine on phosphate between nt 2 and 3; 2'-F at nt 2; 3'-phosphate
As to B2, the binding result in data set [2], in data set [3] and in data set [1] was “binds” throughout.

The record behind these values is paper PMC12135372, “Structural and biochemical characterization of the 3′-5′ tRNA splicing ligases”.
